Measured values: patent US9631180B2, “Recombinant manganese oxidase” (OREGON HEALTH & SCIENCE UNIVERSITY, priority 2013, dated 2017)

What was measured:
Bacillus subtilis CotA = details: described in Durão P et al, 2008; cited from earlier work
B. licheniformis CotA = details: described in Koschorreck K et al, 2008; cited from earlier work
[1] = 2,6-DMP oxidation kinetics, absorbance at 468 nm; assay type: biochemical; details: Phosphate-citrate buffer
Procedure: (§1) Kinetic experiments were performed on the Molecular Devices SpectraMax® M2 microplate reader spectrophotometer at 22° C. with purified protein. […] Reactions were carried out with 10 μg Mnx (final 240 nM) 100 mM in phosphate-citrate buffer pH 3-8 and 20 mM CHES, HEPES, and MES at pH 7-10. Dimethoxyphenol (DMP) oxidation was followed by measuring the increase in absorbance at 468 nm and ε=49.6 mM-1 cm-1. These assays were performed in at least two independent trials in triplicate. Fe(II) (ferrous ammonium sulfate) oxidation was measured by quenching 200 μl reactions with 50 μl of the Fe(II) chelating colorimetric assay FerroZine® (15 mM) and a ferrous ammonium sulfate standard curve, noting the absorbance at 570 nm. Fe(II) oxidation reactions were performed with 10 μg recombinant Mn oxidase complex in 100 mM Na acetate-acetic acid buffer (pH 4-5.5). Mn(II) (MnCl2) oxidation in 20 mM HEPES (pH 7-8.5) was measured by quenching 5 μl of 200 μl reactions with 195 μl leucoberbelin blue (LBB) colorimetric reagent and reading the absorbance at 618 nm. […] These slopes were converted to the appropriate kinetic units, plotted, and fit with nonlinear regressions determined by comparing best fit values in the same software. KM and Vmax were determined and reported as KM and kcat=Vmax/[enzyme].

[2] = Mn(II) oxidation kinetics, leucoberbelin blue (LBB) quench assay; assay type: biochemical
Procedure: Kinetic experiments were performed on the Molecular Devices SpectraMax® M2 microplate reader spectrophotometer at 22° C. with purified protein. […] Reactions were carried out with 10 μg Mnx (final 240 nM) 100 mM in phosphate-citrate buffer pH 3-8 and 20 mM CHES, HEPES, and MES at pH 7-10. Dimethoxyphenol (DMP) oxidation was followed by measuring the increase in absorbance at 468 nm and ε=49.6 mM-1 cm-1. These assays were performed in at least two independent trials in triplicate. Fe(II) (ferrous ammonium sulfate) oxidation was measured by quenching 200 μl reactions with 50 μl of the Fe(II) chelating colorimetric assay FerroZine® (15 mM) and a ferrous ammonium sulfate standard curve, noting the absorbance at 570 nm. Fe(II) oxidation reactions were performed with 10 μg recombinant Mn oxidase complex in 100 mM Na acetate-acetic acid buffer (pH 4-5.5). Mn(II) (MnCl2) oxidation in 20 mM HEPES (pH 7-8.5) was measured by quenching 5 μl of 200 μl reactions with 195 μl leucoberbelin blue (LBB) colorimetric reagent and reading the absorbance at 618 nm. Working LBB reagent was prepared by diluting concentrated stock (100 mg LBB in 25 ml 0.4% NaOH) 1:10 into 1% acetic acid. A KMnO4 standard curve was used to determine MnO2 oxide equivalent concentration. The metal substrate assays were performed in five independent trials then the high and low values were discarded from each concentration. The linear part of each curve was fit plotted and fit with a linear regression in GraphPad Prism®. These slopes were converted to the appropriate kinetic units, plotted, and fit with nonlinear regressions determined by comparing best fit values in the same software. KM and Vmax were determined and reported as KM and kcat=Vmax/[enzyme].

[3] = Fe(II) oxidation kinetics, FerroZine quench assay; assay type: biochemical; details: pH 5
Procedure: as §1

[4] = O2 consumption during Mn oxidation, Clark type electrode; assay type: biochemical; details: for lag time before O2 consumption is detected: after addition of MnCl2, across all runs
Procedure: Also indicative of MCOs is the consumption of O2 and its reduction to H2O, terminating electron transfer at the trinuclear Cu center. O2 consumption was measured on a Clark type electrode during Mn oxidation by the recombinant Mn oxidase complex. Following the addition of MnCl2 to the enzyme, there is about a 30 s lag time before O2 consumption is detected across all runs (FIG. 7A). Starting with a higher concentration of MnCl2, results in a faster initial velocity of O2 consumption (FIG. 7B). […] This stoichiometry supports the MCO mechanism of the four electron reduction required to generate 2 mol H2O from 1 mol O2.
Oxygen consumption was measured on a Rank Brothers LTD model 10 electrode with the polarizing voltage set to 630 mV. The 2 ml water-jacketed reaction cell was kept at 37° C. using a water bath. The instrument was calibrated by taking a zero measurement with Ar purged water and a 100% measurement with atmospheric oxygenated water assuming 214 μM O2 at […]. A computer interfaced with the electrode measured 02 every 1 s. Data collection began about 1 min before 10 μL of 1 mg/ml Mnx protein (^˜24 nM final if mass of recombinant Mn oxidase complex is 211 kDa) was added through the 2 mm diameter opening in the cap and allowed to equilibrate with 37° C. 20 mM HEPES pH 7.8 50 mM NaCl. Another minute of baseline reading was taken before adding 10 μL of various concentrations of MnCl2. The data was plotted Time (min) vs. % O2 remaining, if addition of MnCl2 is t=0. The initial O2 consumption velocities of all runs were plotted against starting MnCl2 concentration. Total O2 consumed was calculated by taking the difference of final from initial O2 concentrations then plotted against MnCl2 concentration and fitted with a linear regression, forced through the xy origin.

## CCn1c(=NN=c2sc3cc(S(=O)(=O)O)ccc3n2CC)sc2cc(S(=O)(=O)O)ccc21 [ABTS, 2,2′-azino-bis(3-ethylbenzthiazoline-6-sulphonic acid)]
Bacillus subtilis CotA
  Km: 6.5 µM
  kcat: 83 s⁻¹
B. licheniformis CotA
  kcat: 322 s⁻¹

B1: recombinant Mn oxidase complex: recombinantly produced Bacillus sp. PL-12 manganese oxidase complex comprising MnxG, MnxE and MnxF, expressed in E. coli (protein, listed as Bacillus sp.)
chain 1: HVFHYHVHQWLGDSSNINAEILDAQSISPQTHYSIQPLYGLGSLHGAIGDSIIHCHLYPHFGIGMWGINRVFDTLQDGSQCYPNGVRIDALKPLPDRPAPPKPTREKPGFPNFIPGKVGYKAPRPPLGIVGGREMTELERNAAIPNPRPGAVFVDPCLDQDPVVVEFNVSAIEMPVVYNKQGWHDPKARFYVMDEDLDDILSGKKEPEPLVFHVPAGTCIRMNYTNRMPHILDGDAFQLVTRTYENGFHIHFVKFDVLACDGGNVGWNYDSAVLPGQTIRYEWYAETELKAWFFHDHLF
chain 2: MHDSPLKSLSAASNVASVNDPLFDFFNKHMGKQILIITESSQLNILGQTFRPIFCGKVAEVEPGHLTLSPVTIKILNAPFHKFPIPLSIPFEKIAHFTTDVDCSMRIPLV
chain 3: MEALFPMSTDYSKMTDVNEIHDSAILEHFRNGIGHKTLVISPSYPYMFVGIIKELIGDTVMIDVETTHFAQLENREWYIHIHNIEVFYIERPGAPKIPKLEDY
[1]
  2,6-DMP oxidation activity: inactive
[2]
  pH optimum of Mn oxidation: 7.8
[2]; HEPES dialyzed protein
  Mn(II) K0.5: 123 ± 7.00 µM
  Mn(II) kcat: 16.1 ± 0.941 s⁻¹
[2]; Tris dialyzed protein
  Mn(II) K0.5: 134.6 ± 9.16 µM
  Mn(II) kcat: 12.9 ± 0.758 s⁻¹
[3]
  Fe(II) kcat: 0.0744 ± 0.00779 s⁻¹
  Km: 9 µM
[4]
  lag time before O2 consumption is detected: ~30 s
[4]; listed as recombinant Mnx complex
  lag time before O2 consumption is detected: about 30 s
[4]; linear regression forced through the origin, 37° C., HEPES pH 7.8
  slope of MnCl2 added vs. O2 consumed: about 0.252±0.0149
